{"source": "patent US7838495B2", "about": "“Compositions and methods of use of EPB1, and ErbB3 binding protein” (University of Maryland, Baltimore, priority 2007, dated 2010)", "key": {"[1]": {"tested_on": "LNCaP cells", "experiment": "Cell growth assays of LNCaP EPB1 transfectants (complete media, soft agar)", "format": "cell-based, human", "method": "Cell Growth Assays: To measure growth in complete media, cells (2×10^4) were seeded in triplicate in individual wells of 12-well tissue culture plates in RPMI-1640 with 10% FBS and cultured for the indicated number of days. Cells were trypsinized, stained with Trypan Blue (0.4%), and counted in a hemacytometer. For soft agar growth assays, increasing concentrations of cells (as indicated) were plated in 35 mm Petri dishes in complete media and 0.3% Difco Bacto Agar over an 0.5% agar layer. Colonies were counted after 10 days of incubation. For studies assessing the effect of dihydrotestosterone (DHT) on cell growth, cells (2×10^4) were plated in 12-well plates in complete media. After a 24-hour attachment period, the medium was replaced with steroid-free medium [phenol red-free RPMI 1640 and 5% charcoal-stripped FBS (Sigma)] for 48 hours. The final concentration of testosterone in the steroid-reduced media was less than 5 pM. After 48 hours of steroid depletion, cells were re-fed with fresh steroid-reduced medium with or without the indicated concentrations of DHT and/or bicalutamide (10 μM), and total cell numbers were assessed 7 days later."}, "[2]": {"tested_on": "C81 cells", "experiment": "HRG-induced growth of C81 transfectants", "format": "cell-based, human", "settings": "ectopic expression of EBP1, androgen-free media", "method": "FIG. 6A-C. EBP1 overexpression inhibits the response to HRG A. EBP1 and vector control transfected cells were plated in complete media at 5×10^3 cells/well for one day. The next day, cells were switched to steroid reduced-media and HRG added at the indicated concentrations. Total cell numbers were determined seven days later by MTT assay. Each point represents mean±S.E. of 6 wells. Data is representative of three experiments. B. AKT activation in response to HRG C81-EBP1 or vector control cells were serum starved overnight and then treated with HRG (20 ng/ml) for the indicated times (mm). Cell lysates were immunoblotted with antibody to phospho-AKT or total AKT as indicated. C. […]\nWestern Blot Analysis. […] For soft agar growth assays, increasing concentrations of cells (as indicated) were plated in 35 mm Petri dishes in 0.3% agar in complete media and colonies were counted after 10 days of incubation (21). […] Relative cell growth was determined using a Promega Proliferation Reagent (Promega, Madison Wis.) as per manufacturer's instructions with absorbance being read at […] using a Dynex plate reader. […] Luciferase activity was determined using the Promega Dual luciferase assay kit as described by the manufacturer. […] Tumors were measured with calipers. Tumor volumes were calculated by the formula width^2×length/2 […]. Mean tumor volume±S.D. were calculated and plotted against time. […]"}}, "data": [{"molecule": "EBP1: ErbB3 binding protein (SEQ ID NO: 2), AR corepressor, here ectopically expressed in cancer cells by stable transfection of an expression plasmid (protein, listed as Homo sapiens, FLAG tag) MSGEDEQQEQTIAEDLVVTKYKMGGDIANRVLRSLVEASSSGVSVLSLCEKGDAMIMEETGKIFKKEKEMKKGIAFPTSISVNNCVCHFSPLKSDQDYILKEGDLVKIDLGVHVDGFIANVAHTFVVDVAQGTQVTGRKADVIKAAHLCAEAALRLVKPGNQNTQVTEAWNKVAHSFNCTPIEGMLSHQLKQHVIDGEKTIIQNPTDQQKKDHEKAEFEVHEVYAVDVLVSSGEGKAKDAGQRTTIYKRDPSKQYGLKMKTSRAFFSEVERRFDAMPFTLRAFEDEKKARMGVVECAKHELLQPFNVLYEKEGEFVAQFKFTVLLMPNGPMRITSGPFEPDLYKSEMEVQDAELKALLQSSASRKTQKKKKKKASKTAENATSGETLEENEAGD", "values": [{"measurement": "growth rate in complete media", "setting": "[1]; LNCaP EPB1 transfectants vs vector control, p<0.05", "value": "significantly decreased"}, {"measurement": "doubling time", "setting": "[1]; LNCaP EPB1 transfectants, complete media (vector control 48 hours)", "value": 72, "unit": "h"}, {"measurement": "decrease of colony growth in soft agar", "setting": "[1]; LNCaP, highest cell concentration tested, ten days", "value": "approximately 90%"}, {"measurement": "ability of C81 cells to grow in response to HRG", "setting": "[2]", "value": "completely abrogated"}]}]}
